Test results taken from US20150329644A1 (BRIGHAM AND WOMEN S HOSPITAL, published 2015).
Ends that are not written are not given here.

T1: Human LSD2 (residues 51-822) (human, UniProt Q8NB78 51-822)
T1 construct: range 51-822; Expressed in Sf9 cells with a His6 tag removed by 3C protease; used for ITC; also called KDM1b; AOF1
T1 sequence (looked up): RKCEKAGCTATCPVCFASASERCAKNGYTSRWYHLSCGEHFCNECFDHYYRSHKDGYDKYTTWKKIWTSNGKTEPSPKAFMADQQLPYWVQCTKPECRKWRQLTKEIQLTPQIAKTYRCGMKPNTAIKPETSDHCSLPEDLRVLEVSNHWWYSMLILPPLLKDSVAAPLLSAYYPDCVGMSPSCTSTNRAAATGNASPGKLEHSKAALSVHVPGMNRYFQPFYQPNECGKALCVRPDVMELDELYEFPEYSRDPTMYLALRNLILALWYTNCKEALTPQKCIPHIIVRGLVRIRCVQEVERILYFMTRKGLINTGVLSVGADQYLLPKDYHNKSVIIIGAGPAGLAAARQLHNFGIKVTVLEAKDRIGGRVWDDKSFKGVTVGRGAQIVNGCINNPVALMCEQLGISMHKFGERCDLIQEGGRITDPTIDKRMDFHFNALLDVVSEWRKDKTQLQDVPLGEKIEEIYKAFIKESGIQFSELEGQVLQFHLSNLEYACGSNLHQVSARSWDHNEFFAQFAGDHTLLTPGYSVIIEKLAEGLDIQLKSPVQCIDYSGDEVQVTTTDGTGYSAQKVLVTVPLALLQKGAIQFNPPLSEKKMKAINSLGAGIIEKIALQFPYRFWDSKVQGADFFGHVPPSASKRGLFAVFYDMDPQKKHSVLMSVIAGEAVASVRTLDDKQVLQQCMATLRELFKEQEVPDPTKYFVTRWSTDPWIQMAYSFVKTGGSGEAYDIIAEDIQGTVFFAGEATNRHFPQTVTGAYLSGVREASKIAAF

T2: Endogenous LSD2 (human cells) (human, UniProt Q8NB78 1-822, limits assumed)
T2 construct: also called KDM1b; AOF1
T2 sequence (looked up): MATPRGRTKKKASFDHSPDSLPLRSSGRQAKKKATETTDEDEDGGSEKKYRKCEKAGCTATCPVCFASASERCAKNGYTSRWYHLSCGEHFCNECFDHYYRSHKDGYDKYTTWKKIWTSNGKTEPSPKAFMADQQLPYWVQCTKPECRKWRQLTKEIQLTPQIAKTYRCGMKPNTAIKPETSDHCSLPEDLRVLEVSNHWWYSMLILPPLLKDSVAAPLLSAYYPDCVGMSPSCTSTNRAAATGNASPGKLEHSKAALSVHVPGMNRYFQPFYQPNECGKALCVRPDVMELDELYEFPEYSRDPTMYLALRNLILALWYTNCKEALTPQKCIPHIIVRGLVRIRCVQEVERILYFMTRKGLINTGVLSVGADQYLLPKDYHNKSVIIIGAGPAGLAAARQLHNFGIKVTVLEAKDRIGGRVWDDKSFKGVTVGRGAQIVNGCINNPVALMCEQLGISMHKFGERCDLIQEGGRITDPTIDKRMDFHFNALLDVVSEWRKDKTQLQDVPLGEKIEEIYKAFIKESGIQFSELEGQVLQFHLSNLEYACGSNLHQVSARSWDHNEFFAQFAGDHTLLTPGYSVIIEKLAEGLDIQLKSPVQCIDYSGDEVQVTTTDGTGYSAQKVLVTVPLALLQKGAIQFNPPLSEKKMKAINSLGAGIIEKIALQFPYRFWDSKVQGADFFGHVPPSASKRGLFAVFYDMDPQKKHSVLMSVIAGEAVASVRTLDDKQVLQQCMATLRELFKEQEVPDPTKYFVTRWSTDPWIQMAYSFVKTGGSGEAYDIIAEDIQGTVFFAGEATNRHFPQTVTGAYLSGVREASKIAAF

T3: Recombinant 6x his tagged full-length LSD2 (human, UniProt Q8NB78 1-822)
T3 construct: range 1-822; Expressed in and purified from Sf9 insect cells; also called His-LSD2; full-length His-LSD2
T3 sequence: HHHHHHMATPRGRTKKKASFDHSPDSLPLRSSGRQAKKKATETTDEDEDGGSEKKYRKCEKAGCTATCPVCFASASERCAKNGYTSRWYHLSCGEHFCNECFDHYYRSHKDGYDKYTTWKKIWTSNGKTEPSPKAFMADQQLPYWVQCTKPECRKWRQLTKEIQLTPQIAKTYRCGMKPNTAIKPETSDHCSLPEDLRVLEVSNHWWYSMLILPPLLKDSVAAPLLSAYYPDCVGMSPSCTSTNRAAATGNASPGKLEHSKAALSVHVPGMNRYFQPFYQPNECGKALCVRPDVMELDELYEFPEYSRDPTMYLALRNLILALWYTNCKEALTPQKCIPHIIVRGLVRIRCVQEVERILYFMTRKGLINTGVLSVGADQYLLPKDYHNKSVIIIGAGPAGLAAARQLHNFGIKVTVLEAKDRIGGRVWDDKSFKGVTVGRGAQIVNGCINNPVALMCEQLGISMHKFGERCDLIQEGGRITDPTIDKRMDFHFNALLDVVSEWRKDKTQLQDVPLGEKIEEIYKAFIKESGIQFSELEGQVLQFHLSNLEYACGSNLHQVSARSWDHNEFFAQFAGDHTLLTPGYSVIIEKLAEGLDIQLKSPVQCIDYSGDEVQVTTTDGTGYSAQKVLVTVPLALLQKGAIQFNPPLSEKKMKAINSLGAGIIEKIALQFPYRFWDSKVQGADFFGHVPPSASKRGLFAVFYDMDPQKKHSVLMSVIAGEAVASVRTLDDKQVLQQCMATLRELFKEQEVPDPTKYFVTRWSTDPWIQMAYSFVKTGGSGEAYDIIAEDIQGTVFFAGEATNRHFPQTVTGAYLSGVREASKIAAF


Assays:
[1] = target: T1, Human LSD2 (residues 51-822); assay: ITC, 15 °C; 3 mM peptide injected into 0.2 mM LSD2 (residues 51-822)
Method: Isothermal Titration Calorimetry (ITC) binding study. […] All proteins and peptides were prepared in 10 mM HEPES, pH 8.0, and 0.1 M NaCl. The data were fitted by software Origin 7.0.

[2] = target: Endogenous LSD1 (HeLa cells) (human, UniProt O60341 1-852); assay: tandem affinity purification, immunoblot with anti-LSD1
[3] = target: T2, Endogenous LSD2 (human cells); assay: tandem affinity purification from HeLa, immunoblot with anti-LSD2
[4] = target: FLAG-HA tagged LSD1 bait protein (stably expressed in HeLa, tandem affinity purified) (human, UniProt O60341 1-852); assay: tandem affinity purification, immunoblot with anti-NPAC
[5] = target: T3, Recombinant 6x his tagged full-length …; assay: GST pulldown of His-LSD2, SDS-PAGE, Coomassie
Method: FIG. 5B discloses SEQ ID NO: 51. […] FIG. 5D discloses SEQ ID NOS 63 and 76, respectively, in order of appearance. […] See also FIG. 6G.
(§1) After washed 4 times with same buffer at 4° C., glutathione agarose beads were boiled in 1× SDS sample loading buffer. Elute was resolved on a 15% SDS-PAGE gel and stained by coomassie blue.

[6] = target: T3, Recombinant 6x his tagged full-length …; assay: GST pulldown of purified His-LSD2, SDS-PAGE, Coomassie
Method: DH, dehydrogenase domain; black box, AT-hook motif. FIG. 2A discloses “PWWP” as SEQ ID NO: 63. […] Molecular masses corresponding to mono- and di-methylated H3K4 peptides (residues 1-21) are denoted as me1 and me2, respectively.
as §1

Δ H [1] [kcal/mol]	Δ S [1] [cal/mol/deg]	binding result [6]	Binder	also measured
-8.29	-1.3		APAAHHFLLSQT (Synthetic dodecapeptide; also called D214A/H216A/F217A triple mutant peptide) [NPAC.214-225.M8 (D214A/H216A/F217A)]	
-8.48	-1.82		DPHFHHFLLSQT (also called wild-type NPAC peptide) [NPAC.214-225.WT (wild-type NPAC dodecapeptide, residues 214-225)]	Binding ratio [1]: 1.06; Kd [1]: 920 nM
-8.18	-0.783		DPHAHHFLLSQT (Synthetic dodecapeptide; also called NP.M6) [NPAC.214-225.M6 (F217A)]	Binding ratio [1]: 1.1; Kd [1]: 930 nM
			FLAG-HA tagged NPAC (N-terminal FLAG-HA, stably expressed in HeLa, tandem affinity purified) (other, Bait of the purified NPAC complex; also called FLAG:HA-NPAC; NPAC complex; not shown: N-terminal FLAG-HA tag from pOZ-N vector) MAAVSLRLGDLVWGKLGRYPPWPGKIVNPPKDLKKPRGKKCFFVKFFGTEDHAWIKVEQLKPYHAHKEEMIKINKGKRFQQAVDAVEEFLRRAKGKDQTSSHNSSDDKNRRNSSEERSRPNSGDEKRKLSLSEGKVKKNMGEGKKRVSSGSSERGSKSPLKRAQEQSPRKRGRPPKDEKDLTIPESSTVKGMMAGPMAAFKWQPTASEPVKDADPHFHHFLLSQTEKPAVCYQAITKKLKICEEETGSTSIQAADSTAVNGSITPTDKKIGFLGLGLMGSGIVSNLLKMGHTVTVWNRTAEKCDLFIQEGARLGRTPAEVVSTCDITFACVSDPKAAKDLVLGPSGVLQGIRPGKCYVDMSTVDADTVTELAQVIVSRGGRFLEAPVSGNQQLSNDGMLVILAAGDRGLYEDCSSCFQAMGKTSFFLGEVGNAAKMMLIVNMVQGSFMATIAEGLTLAHVTGQSQQTLLDILNQGQLASIFLDQKCQNILQGNFKPDFYLKYIQKDLRLAIALGDAVNHPTPMAAAANEVYKRAKALDQSDNDMSAVYRAYIH	binding result [2]: no binding; binding result [3]: binds
			Endogenous NPAC (human cells) (other, Endogenous protein of HeLa cells, detected by immunoblot in purified complexes; also called GLYR1; NP60) MAAVSLRLGDLVWGKLGRYPPWPGKIVNPPKDLKKPRGKKCFFVKFFGTEDHAWIKVEQLKPYHAHKEEMIKINKGKRFQQAVDAVEEFLRRAKGKDQTSSHNSSDDKNRRNSSEERSRPNSGDEKRKLSLSEGKVKKNMGEGKKRVSSGSSERGSKSPLKRAQEQSPRKRGRPPKDEKDLTIPESSTVKGMMAGPMAAFKWQPTASEPVKDADPHFHHFLLSQTEKPAVCYQAITKKLKICEEETGSTSIQAADSTAVNGSITPTDKKIGFLGLGLMGSGIVSNLLKMGHTVTVWNRTAEKCDLFIQEGARLGRTPAEVVSTCDITFACVSDPKAAKDLVLGPSGVLQGIRPGKCYVDMSTVDADTVTELAQVIVSRGGRFLEAPVSGNQQLSNDGMLVILAAGDRGLYEDCSSCFQAMGKTSFFLGEVGNAAKMMLIVNMVQGSFMATIAEGLTLAHVTGQSQQTLLDILNQGQLASIFLDQKCQNILQGNFKPDFYLKYIQKDLRLAIALGDAVNHPTPMAAAANEVYKRAKALDQSDNDMSAVYRAYIH	binding result [4]: no binding
			GST-NP.d9 (NP.d3, NPAC residues 152-252, with deletion of amino acids 214-222) (other, not shown: a dimerising Fc or GST; small tags and cut ends, The flanking ranges are derived from that) SERGSKSPLKRAQEQSPRKRGRPPKDEKDLTIPESSTVKGMMAGPMAAFKWQPTASEPVKDASQTEKPAVCYQAITKKLKICEEETGSTSIQ	binding result [5]: no binding
		no binding	GST-NP.d6 (NPAC with deletion of the linker region, residues 152-252) (other, not shown: a dimerising Fc or GST; small tags and cut ends, The flanking ranges are derived from that) MAAVSLRLGDLVWGKLGRYPPWPGKIVNPPKDLKKPRGKKCFFVKFFGTEDHAWIKVEQLKPYHAHKEEMIKINKGKRFQQAVDAVEEFLRRAKGKDQTSSHNSSDDKNRRNSSEERSRPNSGDEKRKLSLSEGKVKKNMGEGKKRVSSGSAADSTAVNGSITPTDKKIGFLGLGLMGSGIVSNLLKMGHTVTVWNRTAEKCDLFIQEGARLGRTPAEVVSTCDITFACVSDPKAAKDLVLGPSGVLQGIRPGKCYVDMSTVDADTVTELAQVIVSRGGRFLEAPVSGNQQLSNDGMLVILAAGDRGLYEDCSSCFQAMGKTSFFLGEVGNAAKMMLIVNMVQGSFMATIAEGLTLAHVTGQSQQTLLDILNQGQLASIFLDQKCQNILQGNFKPDFYLKYIQKDLRLAIALGDAVNHPTPMAAAANEVYKRAKALDQSDNDMSAVYRAYIH	
		no binding	GST-NP.d5 (NPAC residues 262-553, dehydrogenase domain) (other, not shown: glutathione S-transferase (GST) tag from vector pGEX-4T-1) SITPTDKKIGFLGLGLMGSGIVSNLLKMGHTVTVWNRTAEKCDLFIQEGARLGRTPAEVVSTCDITFACVSDPKAAKDLVLGPSGVLQGIRPGKCYVDMSTVDADTVTELAQVIVSRGGRFLEAPVSGNQQLSNDGMLVILAAGDRGLYEDCSSCFQAMGKTSFFLGEVGNAAKMMLIVNMVQGSFMATIAEGLTLAHVTGQSQQTLLDILNQGQLASIFLDQKCQNILQGNFKPDFYLKYIQKDLRLAIALGDAVNHPTPMAAAANEVYKRAKALDQSDNDMSAVYRAYIH	
			SERGSKSPLKRAQEQSPRKRGRPPKDEKDLTIPES (other, also: GST tag fusion, tag and linker sequence not given here, not shown: glutathione S-transferase (GST) tag from vector pGEX-4T-1) [GST-NP.d7 (NPAC residues 152-186, containing the AT hook motif)]	binding result [5]: no binding
		no binding	GST-NP.d1 (NPAC residues 1-150, PWWP domain) (other, not shown: glutathione S-transferase (GST) tag from vector pGEX-4T-1) MAAVSLRLGDLVWGKLGRYPPWPGKIVNPPKDLKKPRGKKCFFVKFFGTEDHAWIKVEQLKPYHAHKEEMIKINKGKRFQQAVDAVEEFLRRAKGKDQTSSHNSSDDKNRRNSSEERSRPNSGDEKRKLSLSEGKVKKNMGEGKKRVSSG	
